From patent US9956260

Columns and labels:
Assay in all cases: cell-based or functional assay
caspase-3 (human) = biological target: T1, caspase-3 (human) (UniProt P42574)
T1 sequence: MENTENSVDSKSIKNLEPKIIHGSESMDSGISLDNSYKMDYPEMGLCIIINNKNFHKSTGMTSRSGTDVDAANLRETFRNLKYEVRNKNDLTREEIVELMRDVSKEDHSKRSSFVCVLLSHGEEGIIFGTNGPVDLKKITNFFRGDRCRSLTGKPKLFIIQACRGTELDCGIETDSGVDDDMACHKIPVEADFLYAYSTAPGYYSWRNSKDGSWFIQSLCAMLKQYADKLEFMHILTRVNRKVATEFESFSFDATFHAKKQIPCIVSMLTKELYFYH

[1] = biological target: HIV-1 gp41 of NL4-3 (WT lab-adapted virus) (HIV-1 (NL4-3))
[2] = biological target: HIV-1 gp41 of WEAU 16-8 (primary virus) (HIV-1 (primary isolate WEAU 16-8))

| Substance | decrease in CD4 T-cell death in HIV-infected HLACs (caspase-3 (human)) [%] | percentage of viable CD4 T cells in HIV-1-infected HLACs after 3 days (flow cytometry; inhibitors 20 µM each) (caspase-3 (human)) [%] | viral infection of HLACs (p24gag FLAQ assay, day 9) [1] [µg/mL] | viral infection of HLACs (p24gag FLAQ assay, day 9) (µg/ml (printed 'gi/ml')) [1] | viral infection of HLACs (p24gag FLAQ assay, day 9) [2] [µg/mL] |
| --- | --- | --- | --- | --- | --- |
| Z-DEVD-FMK (peptide) | 50 | 50 | – | – | – |
| enfuvirtide (T20) (peptide) | – | – | > 2 | 10 | 0.1 |
